Laboratory results taken from publication PMC4820125, “Aptamer-Assisted Detection of the Altered Expression of Estrogen Receptor Alpha in Human Breast Cancer”.

B1: ERaptD4 (ssDNA)
DNA: ATACCAGCTTATTCAATTCGTTGCATTTAGGTGCATTACGGGGGTTATCCGCTCTCTCAGATAGTATGTGCAATCA
B2: ERaptD8 (ssDNA)
DNA: ATACCAGCTTATTCAATTCGAGTAACGCTGTCTCTTCCGAATCGGGGGAAGGCGGAGGAGATAGTATGTGCAATCA
B3: ERaptD3 (ssDNA)
DNA: ATACCAGCTTATTCAATTGGGGATAACGTCGTCACGTCGTGTCATCATTGGTTCAGTCAGATAGTATGTGCAATCA

Key:
PR-DBD = PR-DBD (human (cDNA from MCF-7), UniProt P06401 567-639); experiment: aptamer ELISA; negligible binding; ITC: 10 mM Tris-HCl pH 8.0, 25 C; aptamer binding buffer (SELEX): 20 mM Tris-HCl pH 7.6, 120 mM NaCl, 5 mM KCl, 1 mM MgCl2, 1 mM CaCl2, RT (ca. 27 C); ELISA: 2; settings: protein: recombinant; tags: His (pET100/D-TOPO)
PR-LBD = PR-LBD (UniProt P06401 675-933); experiment: as above; settings: protein: commercial; tags: GST
ERα full length = ERα full length (UniProt P03372 1-595); experiment: aptamer ELISA; 500 nM aptamer; ITC: 10 mM Tris-HCl pH 8.0, 25 C; aptamer binding buffer (SELEX): 20 mM Tris-HCl pH 7.6, 120 mM NaCl, 5 mM KCl, 1 mM MgCl2, 1 mM CaCl2, RT (ca. 27 C); ELISA: 2; settings: protein: commercial, chain copies: 2
ERα full length, sequence (P03372 whole entry): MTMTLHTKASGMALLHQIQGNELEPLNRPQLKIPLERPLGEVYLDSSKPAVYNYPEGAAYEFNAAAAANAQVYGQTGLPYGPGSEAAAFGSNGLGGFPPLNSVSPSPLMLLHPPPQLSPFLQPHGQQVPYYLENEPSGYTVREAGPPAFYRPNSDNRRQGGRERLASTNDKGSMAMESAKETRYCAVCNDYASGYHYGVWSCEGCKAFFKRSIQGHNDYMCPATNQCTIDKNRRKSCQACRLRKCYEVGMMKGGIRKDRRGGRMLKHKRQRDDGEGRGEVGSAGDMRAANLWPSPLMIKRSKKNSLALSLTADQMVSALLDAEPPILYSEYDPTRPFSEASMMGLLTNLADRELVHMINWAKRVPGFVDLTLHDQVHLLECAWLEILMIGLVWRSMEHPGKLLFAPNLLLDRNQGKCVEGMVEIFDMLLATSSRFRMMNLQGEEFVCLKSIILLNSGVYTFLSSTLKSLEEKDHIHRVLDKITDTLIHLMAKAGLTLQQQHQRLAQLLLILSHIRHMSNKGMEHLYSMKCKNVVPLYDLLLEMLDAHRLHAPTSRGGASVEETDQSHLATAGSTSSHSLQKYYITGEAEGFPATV

PR-LBD, sequence (P06401 675-933): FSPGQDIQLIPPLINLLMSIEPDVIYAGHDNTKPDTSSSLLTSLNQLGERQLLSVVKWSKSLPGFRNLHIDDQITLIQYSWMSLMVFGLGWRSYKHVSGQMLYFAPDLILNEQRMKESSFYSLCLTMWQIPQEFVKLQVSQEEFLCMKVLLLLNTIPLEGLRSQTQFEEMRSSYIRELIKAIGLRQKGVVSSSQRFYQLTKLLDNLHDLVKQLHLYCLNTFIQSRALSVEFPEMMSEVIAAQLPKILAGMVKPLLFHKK
PR-DBD, sequence (P06401 567-639): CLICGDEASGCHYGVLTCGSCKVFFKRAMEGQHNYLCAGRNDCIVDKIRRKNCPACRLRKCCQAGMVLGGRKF

Binder	binding result (PR-DBD)	binding result (PR-LBD)	binding signal (ERα full length)	binding signal (ERα full length; label: biotin)
B1	no binding	no binding	78.5 % of anti-ERα antibody signal	–
B2	–	–	–	50.5 % of anti-ERα antibody signal
B3	–	–	–	47.3 % of anti-ERα antibody signal
